# The Human Domainome abundance scans (Beltran et al. 2025)
# ± gives the uncertainty stated by the source.
# B1: TOX high mobility group box family member 3, residues 256 to 323; numbered along this chain, O15405 (parent)
# chain: QKPVSAYALFFRDTQAAIKGQNPNATFGEVSKIVASMWDSLGEEQKQVYKRKTEAAKKEYLKALAAYR
# Variants of: B1
# Experiment: abundance fitness (aPCA) (normalised: wild type 0, dead -1); higher = more abundant; growth selection in yeast, the domain comes from the species named
# Conditions: Homo sapiens
row,Variant,abundance fitness
1,L41G,-0.474 ± 0.07
2,L41F,-0.507 ± 0.15
3,K57G,-0.125 ± 0.053
4,K57C,-0.275 ± 0.064
5,K57N,0.042 ± 0.077
6,Q15P,-1.08 ± 0.19
7,Q15I,0.027 ± 0.27
8,Q15A,-0.512 ± 0.15
9,Q15W,-0.194 ± 0.075
10,Q15H,-0.084 ± 0.14
11,Q15F,0.022 ± 0.086
12,Q15E,-0.065 ± 0.066
13,Q15R,-0.309 ± 0.072
14,Q15M,-0.068 ± 0.078
15,P3T,-0.142 ± 0.062
16,P3M,-0.296 ± 0.096
17,P3N,-0.163 ± 0.083
18,P3C,-0.342 ± 0.076
19,V34H,-1.06 ± 0.23
20,V34N,-0.655 ± 0.27
21,V34S,-0.638 ± 0.091

row,Variant,abundance fitness
1,F10T,-0.53 ± 0.11
2,F10R,-0.751 ± 0.1
3,F10N,-0.916 ± 0.45
4,F10K,-0.946 ± 0.17
5,A63V,-0.212 ± 0.055
6,A63N,0.107 ± 0.074
7,A63Q,0.119 ± 0.064
8,A63K,0.173 ± 0.062
9,A56M,-0.063 ± 0.1
10,A56R,-0.201 ± 0.054
11,K52A,-0.368 ± 0.055
12,K52C,-0.547 ± 0.086
13,K52M,-0.373 ± 0.074
14,P23Q,-0.241 ± 0.088
15,P23I,-0.521 ± 0.17
16,P23R,-0.454 ± 0.056
17,P23Y,-0.948 ± 0.29
18,P23S,-0.335 ± 0.069
19,P23A,-0.32 ± 0.084
20,S31C,-0.163 ± 0.072
21,S31E,0.015 ± 0.082

row,Variant,abundance fitness
1,S31Q,-0.063 ± 0.083
2,S31P,-1 ± 0.22
3,S31H,-0.265 ± 0.11
4,S31R,-0.062 ± 0.047
5,L61E,-0.064 ± 0.16
6,L61I,-0.029 ± 0.062
7,L61G,0.08 ± 0.11
8,L61K,0.247 ± 0.076
9,F11I,-0.676 ± 0.43
10,F11V,-0.14 ± 0.07
11,F11Y,-0.278 ± 0.19
12,W38V,-1.07 ± 0.14
13,W38C,-0.743 ± 0.11
14,W38K,-0.799 ± 0.16
15,W38E,-0.653 ± 0.12
16,W38Y,-0.206 ± 0.14
17,W38N,-0.843 ± 0.26
18,W38R,-0.918 ± 0.12
19,E44D,0.069 ± 0.067
20,E44L,-0.556 ± 0.062
21,S40E,0.01 ± 0.042

row,Variant,abundance fitness
1,S40H,-0.092 ± 0.12
2,S40T,0.099 ± 0.061
3,S40P,-1.01 ± 0.16
4,Y7Q,-0.212 ± 0.12
5,Y7P,-0.452 ± 0.16
6,Y7C,-0.585 ± 0.19
7,Y7W,-0.462 ± 0.098
8,Y7T,-0.679 ± 0.11
9,A8L,-0.235 ± 0.065
10,A8K,0.009 ± 0.074
11,A8H,0.136 ± 0.17
12,A8G,-0.179 ± 0.17
13,A8Y,-0.458 ± 0.24
14,A8E,-0.376 ± 0.18
15,A8R,-0.027 ± 0.044
16,Q47S,-0.079 ± 0.054
17,Q47K,-0.048 ± 0.087
18,Q47L,-0.211 ± 0.061
19,R68G,-0.01 ± 0.078
20,R68N,0.198 ± 0.24
21,R68M,-0.247 ± 0.11
